Assay results: the DeepSol protein solubility set

Test: soluble on expression in E. coli; label from the status in PepcDB or PDB records

| Sequence | soluble on expression in E. coli |
| --- | --- |
| MGSSHHHHHHSSGLVPRGSKKKKEMPFPNKKIELGDKLSESIRSFSTITDTEIIIGICRKNIPGWKEINESYIEVKQIFSGLTNQLFVVSIVNESMSLSLKHPRILFRIYGKHVGKFYDSKVELDVFRYLSNINIAPNIIADFPEGRIEEFIDGEPLTTKQLQLTHICVEVAKNMGSLHIINSKRADFPSRFDKEPILFKRIYLWREEAKIQVSKNNFQIDKELYSKILEEIDQLEELIMGGEKFSMERALELKLYSPAFSLVFAHNDLQENNLLQTQNNIRMIDYEYSAINFAGADIANYFCEYIYDYCSEKQPYFKFKYEDYPCEELRKLFISVYLSQTLQEQVMPSQQIVHIMTKAVEVFTLISHITWGLWSIARTPGYQPNSVEFDFTEYANTRFTHYLQKKKELIDQGILPLNSWLFNL | soluble |
| MSLIDPKRARLPIIRQCTLLRLNRSGVYYRSVPQSEANLELMRLIDAQFLETPYYGSRQMTWHLRRLGHEVGRKRVRRLMAIMGLRAIYQKPRTSVPHPEHRKYPYLLRDLVIDRPNQVWCSDITYIPMKRGFLYLVAIMDWFTRKVLSWRLSNTMDAEFCIEALRDALMRYGPPEIFNTDQGSQFTTPRFTGILEERQIRISMDGRGRWLDNVFIERLWRSLKYECVYLHAFETESELRVGLTKWITHYNGQRPHTALAGRTPDEAYHGVPTPSGPGLTPDQMANSNAVRMAAEGHHHHHH | soluble |
| PYSYDLIFGDVNTTNFYAQFAKKHNTHMWSKIQSTQNGEIGFHKNSKTGQQRH | soluble |
| MRFFIALPAHAKRCRRAWRMEFISALPVGFAMNRRGLELRELLPLIPAEKLLIETDAPYLLPRDLTPKPSSRRNEPAHLPHILQRIAHWRGEDAAWLAATTDANVKTLFGIAFLEHHHHHH | not soluble |
| MIEFRQVSKTFNKKKQKIDALKDVSFTVNRNDIFGVIGYSGAGKSTLVRLVNHLEAASNGQVIVDGHDITNYSDKMMRDIKKDIGMIFQHFNLLNSATVFKNVAMPLILSKKSKTEIKQRVTEMLEFVGLSDKKDQFPDELSGGQKQRVAIARALVTNPKILLCDEATSALDPATTASILTLLKNVNQTFGITIMMITHEMRVIKDICNRVAVMEKGKVVETGTVKEVFSHPKTTIAQNFVSTVIQTEPSTSLIRRLNDEQVGDFKDYKIFVEETQVTQPIINDLIQICGREVKILFSSMSEIQGNTVCYMWLRFNMDQQFEDTAINQYFKEKNIQFEEVH | not soluble |
| MGSDKIHHHHHHMKILIYGAGVLGSYAAYELKRVGHEVTILARSSRYEELKEKGLVIRHWFQRKTTKNKINVVKELLPEEYYDAVFIVMQSSQTNAILPVITANVKCPLFVFVGNQDKAKDISEKIKSTSKSNPRVLFGFFSIGGRREGGKVISVHTKHPDFDIGDLEGRDDYKIIIEKIFKETSFKLHYHVNMDDFFKTHIVVIMPLAYLAYMSNCDLRKIAWNRKALNAVIDAMIEGHEVLIKLGHKVDPESSERLLRNHRKVAYLGLKVCAMTPLGKLGISDHCKSGWREMEYLDKRLLEWAKKSNLETPNINKLREHLIKYVHKKVI | not soluble |
| MRSYRAQGPLPGFYHYYPGVPAVVGVRVEERVNFCPAVWNTGLSADPPLFGVSISPKRFTHGLLLKARRFSASFHPFGQKDLVHWLGSHSGREVDKGQAPHFLGHTGVPILEGAYAAYELELLEVHTFGDHDLFVGRVVAVWEEEGLLDEKGRPKPGLALLYYGKGLYGRPAEETFAP | soluble |
| MSSPTSLEEDGDIKLKTRFQGQVVVLYARPPLILDDFFALLKDACKQHKKQDITVKWIDEDGDPISIDSQMELDEAVRCLNSSQEAELNIHVFVGKPELPGLPCQGEDKTVYRRGARRWKKIYLYNGHRFQAKRLNRRIQCFICHDYIWGIGRQGFRCVDCRLCVHKKCHRHVRTHCGQALQGPNIIPMAPASGSLKGARSNTSSSTTRSGGGIDNGAFHEHEIESPGSTSHDASRAMNGNGSSKWAVSLNDFRLLTVIGRGSYAKVVQAEHVSTRQIYAIKIIKKEMFNEDEDIDWVQTEKSVFEAASNYPFLVGLHSCFQTESRLFFVIEFVPGGDLMFHMQQQRKLPEEHARFYSGEIILALHFLHSRGIIYRDLKLDNVLIDAEGHIKLTDYGMCKENIKDGDLTSTFCGTPNYIAPEILRGDEYGFSVDWWALGVLMFEMMAGRSPFDIVGMQNSEENTEDYLFQIILERQIRIPRSLSVRASGILKGFLNKDPTERLGCKLDINEGLRDMKEHQFFRGFIDWEALEQKAVAPPYHPAVESDRDLTHFDHQFTDELPQLSPDNPDVIARIDQSEFDGFEYVNPLQMSREDSV | not soluble |
| MAPKDQAADMDYDQTKKMVVDILKTDDGKKAIKELLNDDAMNEALVIDQDAIKGTIEKTLTSKKGEEFWKNIFEDTDFAEGFAKTLQTEHEKVIKKLMKDPDYQKMLMSVMQDPGMDKKYSQLAKSQEFRSYLEEVINETLSSPLYKKQFEDELKKAAKDTAKESELEHHHHHH | soluble |
| MLTITQALVDQIVAHARQDHPDEACGVVAGPEGSGRPERFIPMLNAARSPTFYEFDSGDLLKLYREMDDRDEEPVIIYHSHTATEAYPSRTDISYANEPGAHYVLVSTADADDAGPFQFRSFQIVAGEVTEEEVKVVEAYLEHHHHHH | soluble |
| MGSDKIHHHHHHMNRPLFDLDLLRALVMVADCGSFTTASARLHSTQSTVSQKVRRLEEIAGHRLLDRGTRDVRPTDAGVTVLSYARRMIALNDEMLEALSGATVALTIRLGVPDDFAAGRTTHALAAFKRDHPQVKLEVTCGLSRDICAAYDRGELDLVLIKQRRDSREAVVRWPEKLRWIDSARHPTIELDPVPLVVFPPRGLYRDDMIKAIEERGRRWRISFTTSSLSGIQAAVADGLGISVLPARAVTDDHVVLTDEHGGFAPIGNMDIAILHRPTADPMVSELTKALAAMLEHEPE | not soluble |
| MGSDKIHHHHHHMALIRINFMAASLHRTVPLMVCLPTDKLVPDEQGVPRPIQGPFATLYLLHGILGSEVDWISGTRIQRWADERNLAVVMPAGENSFYTDHPWSGETYSQFIGQELIDFTRRTFPLSHQRDQTFIGGLSMGGYGALYNGLKFHDIFGAIVSLSAGLNVRPGMEKLPAKPQWFAETAAYQHGVFGPDLAAAGHSELNPQVLVTKLLAAHVALPAIFMAIGDQDGLKPANDEFDHFLTAKKVSHEYVVGSGAHEWDFWDRYLLKALNWLPLTNQGAGVNSGHIKAN | not soluble |
| VFLGKTSPDFNLGWSNSLSYKGFGLSFLINGRFGGVVTSSTQAILDRFGVSKASAEARDAGGVLLPGQGRVDAQSYYQLIGTGDYTTSGYYVYSATNIRLQELTLSYRFPDLWFKNVLKDVTLSFIANNPWMLYSKAPHDPELTPSVGTYGQGNDYFMQPSVRSFGFGIKFKL | not soluble |
| MGSDKIHHHHHHMKDWWQATFPNGRQTLIITDAKGYPVEISYGEKGKGKPLILLHGMGSWSYNWRHSVTELSKYFRVICFDAKGFGFSEKPLSRREHNGHQVIEFQRIIQALCDEPAVIVAESLGGLVALALAQENPQLIGQLVVVNVPVFAKRLPHWAMGLLAQTPLEIIQTIDSLRLAYFFAPLLREIMAIERRGVLFDPSILTKEDVYWITYPFIEFPGTLVKVAEELQIAAREIENWQADKPNMLTKIQNKLSIIKCPTLVLWGDQDSWFPATHGEKLHQHIPNSKLKILSNCYHDASTGASKELNAAILEFLRDGNTVLRSLDS | not soluble |
| MIPSVSPQQDALTGQPLRVVERDGVHYTLLGTAHISQASVAAVKQEVESGCYDAIAVELDAQRLQALCDPDTLAKLDLIQVIRKGQLALFAANLALAAYQRRLAKQLGIEPGAELKTAVTMARERDLPVHLIDREVGLTFKRASAKLGFLGKMKLGGGLIAGLFAADEVGEEEIEKLKQGDMLEASFGDFANESPELYQTIIAERDRYMATRLREEVNSATPKVLVVVGAGHLTGLAKHLENDTEPPTELRALLEKVQQKKR | not soluble |
| MIGCLPMMRSLERHAVILGLLRQQEHVTIEAMAAACDASLQTIRRDLNQLGEDGRVVRYHGGARLADHARSATYEVRSASHVREKVAAGQLLARFIPDGATLFIAGGSTLALAAQELRACEGLTIVTNNLHAAVTLYDKTGFDVCVLGGTMRPASGSMIGEEAVRMIERYSLDFAVIGTCGISPDGALLEYDQSLVPPLLAMISNARRTVLVADGSKFGAKGIVRAAPLSAVNHFVTDRAPEGRAADLLARTGVKVHHPANPNLSSQDAAADGRELEHHHHHH | not soluble |
